Assay: soluble on expression in E. coli; label from the status in PepcDB or PDB records

| Sequence | soluble on expression in E. coli |
| --- | --- |
| MAKVLVLGGGIGGTEAAIALRKEGFEVSLVSDKPYLYIYPISIWIPTGEAKFEDVIIPLDKFARRWGVNLIIDRVEKIDAQNKKVHLKSGKVLEDFDYLVVALGQTKRKEKGLENTLSICGSPEEALKIRDRLVELIAKGEGKIAFGFGGNPKDKTAVRGRPVFEVLFNVDYHLSRLGIRDRFELTFFAPMPKPGERLGEKALKMLDQMFQKYGIKKITGKKIKEFKENGVLFEDDTFLESDLIIYTPAGWGNPVFADSGFPLNEAGFIKIEETCQVVGYEWAYAIGDSAAIEGPPWTAKQGHLAEVMGHITAHNIAVKEGKKSGELKSYKEHINILCLMDMGWRGGGFAYRSDKRAMLIPIPVLGHIMKKAWGVYYKLYKLGKIPKII | not soluble |
| MALAVRKQLLYELIDRLDETDHQTAYDFLMYLLDRSRKERMVWERIDETDEEEALTEEERQQLQSDEGYITGGEAKREFGLQVDLP | not soluble |
| MALDNRHRLIVGKLAEAFGLPENVIEKTLTQDKQAVNSFFTPAGPPSLVFVYQVKEDKLKDGSVGPVDNKPTLHRIGPHERIHNKGVYFTRLNPKGINEKTLEADMGSGELSGGALENFKAIVSDLYLPIMQEQQQWGKMSTEYLEDFLSSTAKFGSMLTEAVATVSGGVELRMPDPRYIDQYGDLRPAGITQAAGDDDTLQEMEECLTEWCREAELLLNQTNKIKDGEEPGPDTELEYWRTRMSNFNSITEHLKTKECKLVLGICSHAKTKAYLRWRALDVQITDAANESKDNVKYLATLEKSMEPMYQGRVTDITESLPALMTNVRMMYTIARFYSTAEHMTRLFTKITNQLVRRCKEQIMENGKIWDQDKVTLIGNMKVSVELANVYRQQYRLAKETLAAQPKSKQFDFDEQAIFLKFDLFSKRLHKLIDMFTTIHQFSSLEQHTHIEGLDTMLKSLNNIIDDVKRKPYDLLDYSRNAFDRDFLEFNVQINDLELQLQGFVNASFEHITSTEHALSLLAQFQAIMQRETLQQDLENKYMVIFQNYAKDLDAVQKLYEKNKYEPPVPRNAPPVAGNIMWARQLLRRIEAPMQRFAQNKNLLAAKESKKIIKTYNKVAKALIEFETLWHQAWIKSIEQCKAGLAAPLLVQHPDTGKILVNFDKEIMQLVREAKYMQRFNIAVPESAQMVLLQEEKFKFYHNQLTHLVREYEHVLGRVAPTIKPLLRPHLDDMERKIAPGFAVLTWTSLNIDGYLHRFKQGLARLEELVRKVVDLTENRVDSNLGAISSTLLVELPTDRSFTYEEFVSTQNRFQKKQAELLAIRNEEVRRAIEDLLTLVRNYPRENTEDVLDEKEVSLFVRHYSKNMYNAIMQCTLNSLQAMKRRLGSKTTTGIFFMERPFFDVDVELKVPSVCMNPTLEEIQAAINQCAKKVLTISKQLPAWGMDNVATYHEMIAGDKEVVKAVLRLTGSVEGIKTQVGEYIRTFDKYDFLWKEDLQAAYDHFMRSNPTLEAFEAELKKYMAIETEVTMINGVNNIGALSLETMPLKNSLKAEAVSWKTQFAQNLHKQCSDDLKAFDNYIRDTNSKFHRKIEDLEDVRNVMAVLKEVREKESEIDNLIGPIEEMYGLLMRYEVRVPKEETTMVSDLRYGWKKLKKVATEVSDNLTRLQVGFKRELIKEVKTFVVDAQMFRKDWEANGPMVPGLDPQEAVDRLRKFQQMFEVRKRKWENYSSGEELFGLPVTQYPELEQTEKEIQMLDRLYSLYVAVITTIKGYGDYFWVDVVEKIDEMGEQVQQYQNQSKKLPKALRDWPAYNACRKTIDDFLEMLPLFQALTHKSMRERHWKEVMRVTGHELNLAEDHFKLQHLLDCNVLRYREDIEDLTGAAVKEEIIEVKLNQLKADWATANLAFAEYKNRGPVILKPSDTSELMEKLEESQMTLGSMATNRYSAPFRDEVQAWSIKLSTVSEIIEQWLMVQSMWQYMEAVF | not soluble |
| MALIRATLPVVEPGRTEIHLPHWDGIEQQHGFIHGGVVGMIADSAAGYAAMTLVPAEASVLTVEYKMNLMAPAEGERLIARGEVVRAGRTLIVTRAEVLALRDGAERLCALMQQTIMVMHARPEKLDAPPAALEHHHHHH | not soluble |

Source: the DeepSol protein solubility set
